According to CN115029318A:

Columns and labels:
[1] = target: EGFR (epidermal growth factor receptor) on human glioma U87 cells (human) (UniProt P00533); test: cell-based or functional assay
[2] = target: CD3 on T cells of human PBMC (human); test: cell-based or functional assay

B1: EGFR-CD3-EGFR MsAb (bispecific antibody, part only; not given: linkers and His tag, not shown: small tags and cut ends)
chain, part: ESGGGLTQPGGSLRLSCAASGMSTGMWHRPTPGRERELIALKAPWPGTAPSSWRFTISRDNASNTVYLQMANLNTEDTAVYFCHAGGLLEWELLVVAASWGQGTVSSQVKLEESGSELVQPGGPLRLSCAASANIFSRTEDDWIWYRQAPGKQRAFVAWITGLSTKIGRFTISVDKSKGTIYLQMNALKPEDTAVYYANAAEHASKVVEVSTSWGQGTVVTVSSESGGGLTQPGGSLRLSCAASGMSTGMWHRPTPGRERELIALKAPWPGTAPSSWRFTISRDNASNTVYLQMANLNTEDTAVYFCHAGGLLEWELLVVAASWGQGTVSS
细胞杀伤率 (killing of GFP-labelled U87 cells by human PBMC, effector:target 5:1, 50 ng/mL antibody, 24 h, 7-AAD, high-content imaging) [1]: > 80% | 细胞杀伤率 (killing of GFP-labelled U87 cells by human PBMC, effector:target 5:1, 50 ng/mL antibody, 24 h, 7-AAD, high-content imaging) [2]: > 80%
